Test results published in patent US20230357447A1 (JANUX THERAPEUTICS, published 2023).
Ends that are not written are not given here.

Assays:
[1] = biological target: T1, Anti-CD28 scFv (VH-linker 1-VL) (biotinylated (site not stated)); test: phage ELISA, scFv wells pre-incubated with soluble CD28 (competitor); background signal 0.079
T1 construct: biotinylated and captured on neutravidin coated plates in the phage ELISA

[2] = biological target: T1, Anti-CD28 scFv (VH-linker 1-VL); test: phage ELISA, captured biotinylated scFv; background signal 0.079
[3] = biological target: T1, Anti-CD28 scFv (VH-linker 1-VL); test: phage ELISA, captured biotinylated scFv; background signal 0.071
[4] = biological target: T1, Anti-CD28 scFv (VH-linker 1-VL); test: phage ELISA, scFv wells pre-incubated with soluble CD28 (competitor); background signal 0.071
[5] = biological target: T1, Anti-CD28 scFv (VH-linker 1-VL); test: phage ELISA, scFv wells pre-incubated with soluble CD28 (competitor); background signal 0.072
[6] = biological target: T1, Anti-CD28 scFv (VH-linker 1-VL); test: phage ELISA, captured biotinylated scFv; background signal 0.072
[7] = biological target: T2, Ab-12, anti-PD-L1xCD28 non-masked antibody in Vh format; test: competition ELISA: peptide titrated against 5 nM Ab-12; binding of Ab-12 to captured biotinylated CD28 antigen is read
T2 construct: also called PDL1xCD28 non-masked (Vh)

[8] = biological target: T1, Anti-CD28 scFv (VH-linker 1-VL); test: phage ELISA, scFv wells pre-incubated with soluble CD28 (competitor); background signal 0.073
[9] = biological target: T1, Anti-CD28 scFv (VH-linker 1-VL); test: phage ELISA, captured biotinylated scFv; background signal 0.073
[10] = biological target: T1, Anti-CD28 scFv (VH-linker 1-VL); test: phage ELISA, captured biotinylated scFv; background signal 0.063
[11] = biological target: T1, Anti-CD28 scFv (VH-linker 1-VL); test: phage ELISA, scFv wells pre-incubated with soluble CD28 (competitor); background signal 0.063
[12] = biological target: T1, Anti-CD28 scFv (VH-linker 1-VL); test: phage ELISA, captured biotinylated scFv; background signal 0.068
[13] = biological target: T1, Anti-CD28 scFv (VH-linker 1-VL); test: phage ELISA, scFv wells pre-incubated with soluble CD28 (competitor); background signal 0.068
[14] = biological target: T1, Anti-CD28 scFv (VH-linker 1-VL); test: phage ELISA, scFv wells pre-incubated with soluble CD28 (competitor); background signal 0.066
[15] = biological target: T1, Anti-CD28 scFv (VH-linker 1-VL); test: phage ELISA, captured biotinylated scFv; background signal 0.066
[16] = biological target: T1, Anti-CD28 scFv (VH-linker 1-VL); test: phage ELISA, scFv wells pre-incubated with soluble CD28 (competitor); background signal 0.061
[17] = biological target: T1, Anti-CD28 scFv (VH-linker 1-VL); test: phage ELISA, scFv wells pre-incubated with soluble CD28 (competitor); background signal 0.078
[18] = biological target: T1, Anti-CD28 scFv (VH-linker 1-VL); test: phage ELISA, captured biotinylated scFv; background signal 0.078
[19] = biological target: T1, Anti-CD28 scFv (VH-linker 1-VL); test: phage ELISA, captured biotinylated scFv; background signal 0.061

Question: With MVSCPTTMWNRCFN [Phage-61] as the binder, how does the “Phage binding ELISA CD28 scFv signal in presence of CD28” value [1] read?
Answer: Its value is 0.072.

Question: And the “Phage binding ELISA CD28 scFv signal” value [2]?
Answer: The value was 1.33.

Question: How did the “Phage binding ELISA CD28 scFv signal” value [3] turn out when MDWCPRHLWVHCFN [Phage-42] was run?
Answer: The value was 2.5.

Question: And the “Phage binding ELISA CD28 scFv signal in presence of CD28” value [4]?
Answer: The value was 0.254.

Question: Which results are given for MDWCPRSHWHVCYN [Phage-75]?
Answer: Phage binding ELISA CD28 scFv signal in presence of CD28 [5]: 0.281; Phage binding ELISA CD28 scFv signal [6]: 1.95

B1: Peptide-50 (peptide)
peptide: MDWCPVHLWSVCFA
modifications: cysteine pairing not given here; also: biotinylated, site not given here
notes: Synthetic biotinylated peptide loaded on streptavidin biosensors
Question: For B1, which IC50 [7] is on record?
Answer: Its IC50 is 2340 nM.

Question: For MDWCPRHRWVDCFY [Phage-57], which “Phage binding ELISA CD28 scFv signal in presence of CD28” value [8] is on record?
Answer: The value was 0.11.

Question: And the “Phage binding ELISA CD28 scFv signal” value [9]?
Answer: The value was 0.478.

Question: MDWCPMDLWYQCFN [Phage-85] was tested. Which “Phage binding ELISA CD28 scFv signal” value [10] did it give?
Answer: Its value is 2.62.

Question: What about the “Phage binding ELISA CD28 scFv signal in presence of CD28” value [11] of the same binder?
Answer: The value was 0.187.

B2: Peptide-49 (peptide)
peptide: MHWCPVDLWYLCYN
modifications: cysteine pairing not given here; also: biotinylated, site not given here
notes: as for B1
Question: With B2 as the binder, how does the IC50 [7] read?
Answer: Its IC50 is 170 nM.

Question: How did the “Phage binding ELISA CD28 scFv signal” value [3] turn out when MDWCPMDLWDYCFN [Phage-51] was run?
Answer: Its value is 1.64.

Question: And the “Phage binding ELISA CD28 scFv signal in presence of CD28” value [4]?
Answer: The value was 0.107.

Question: Which results are given for MDWCPRDLWHECFA [Phage-26]?
Answer: Phage binding ELISA CD28 scFv signal [10]: 2.71; Phage binding ELISA CD28 scFv signal in presence of CD28 [11]: 0.277

Question: Which results are given for MDWCPRYLWHECFA [Phage-71]?
Answer: Phage binding ELISA CD28 scFv signal [3]: 2.63; Phage binding ELISA CD28 scFv signal in presence of CD28 [4]: 0.429

Question: Which “Phage binding ELISA CD28 scFv signal” value [12] does the source give for MDWCPRALWAECFN [Phage-63] here?
Answer: The value was 2.68.

Question: What about the “Phage binding ELISA CD28 scFv signal in presence of CD28” value [13] of the same binder?
Answer: The value was 0.339.

Question: Which results are given for MDWCPRDLWHECFS [Phage-79]?
Answer: Phage binding ELISA CD28 scFv signal in presence of CD28 [14]: 0.382; Phage binding ELISA CD28 scFv signal [15]: 2.65

Question: Which “Phage binding ELISA CD28 scFv signal in presence of CD28” value [16] does the source give for MDWCPIYLWDECFN [Phage-106] here?
Answer: The value was 0.215.

Question: With MDWCPRPLWHECFS [Phage-45] as the binder, how does the “Phage binding ELISA CD28 scFv signal in presence of CD28” value [17] read?
Answer: The value was 0.121.

Question: What about the “Phage binding ELISA CD28 scFv signal” value [18] of the same binder?
Answer: Its value is 2.35.

Question: MDWCPRALWHECFN [Phage-73] was tested. Which “Phage binding ELISA CD28 scFv signal” value [3] did it give?
Answer: Its value is 2.69.

Question: And the “Phage binding ELISA CD28 scFv signal in presence of CD28” value [4]?
Answer: Its value is 0.401.

Question: Which results are given for MDWCPRYLWHVCFA [Phage-36]?
Answer: Phage binding ELISA CD28 scFv signal in presence of CD28 [5]: 0.226; Phage binding ELISA CD28 scFv signal [6]: 2.48

Question: For MDWCPRDLWAECFN [Phage-107], which “Phage binding ELISA CD28 scFv signal in presence of CD28” value [16] is on record?
Answer: The value was 0.207.

Question: Which results are given for MDWCPRYLWFECFA [Phage-114]?
Answer: Phage binding ELISA CD28 scFv signal in presence of CD28 [14]: 0.21; Phage binding ELISA CD28 scFv signal [15]: 2.5

Question: How did the “Phage binding ELISA CD28 scFv signal in presence of CD28” value [14] turn out when MDWCPRHLWAECFF [Phage-86] was run?
Answer: The value was 0.292.

Question: And the “Phage binding ELISA CD28 scFv signal” value [15]?
Answer: Its value is 2.61.

Question: For MDWCPRFMWDECFN [Phage-33], which “Phage binding ELISA CD28 scFv signal in presence of CD28” value [1] is on record?
Answer: Its value is 0.256.

Question: And the “Phage binding ELISA CD28 scFv signal” value [2]?
Answer: Its value is 2.68.

B3: Phage-56 (second entry so labelled, SEQ ID NO: 255) (peptide)
peptide: MDWCPRYLWNECFY
notes: label printed as Phage-56 between Phage-65 and Phage-67, probably Phage-66
Question: With B3 as the binder, how does the “Phage binding ELISA CD28 scFv signal in presence of CD28” value [1] read?
Answer: The value was 0.358.

Question: And the “Phage binding ELISA CD28 scFv signal” value [2]?
Answer: The value was 2.54.

Question: For MDWCPRYLWAECFY [Phage-102], which “Phage binding ELISA CD28 scFv signal in presence of CD28” value [11] is on record?
Answer: Its value is 0.354.

Question: For MNWCPRDMWYQCFN [Phage-54], which “Phage binding ELISA CD28 scFv signal” value [12] is on record?
Answer: The value was 1.95.

Question: And the “Phage binding ELISA CD28 scFv signal in presence of CD28” value [13]?
Answer: Its value is 0.177.

Question: How did the “Phage binding ELISA CD28 scFv signal” value [12] turn out when MDWCPRDLWSECFF [Phage-28] was run?
Answer: The value was 2.57.

Question: What about the “Phage binding ELISA CD28 scFv signal in presence of CD28” value [13] of the same binder?
Answer: The value was 0.218.

Question: Which results are given for MDWCPRDLWDLCFA [Phage-25]?
Answer: Phage binding ELISA CD28 scFv signal in presence of CD28 [17]: 0.219; Phage binding ELISA CD28 scFv signal [18]: 2.7

Question: Which “Phage binding ELISA CD28 scFv signal in presence of CD28” value [16] does the source give for IDWCPRYLWDECYN [Phage-48] here?
Answer: The value was 0.153.

Question: And the “Phage binding ELISA CD28 scFv signal” value [19]?
Answer: The value was 2.24.

Question: What does the source list for MDWCPIDMWDQCFN [Phage-40]?
Answer: Phage binding ELISA CD28 scFv signal in presence of CD28 [16]: 0.297; Phage binding ELISA CD28 scFv signal [19]: 2.66

Question: What does the source list for MHWCPVDLWYLCYN [Phage-37]?
Answer: Phage binding ELISA CD28 scFv signal in presence of CD28 [1]: 0.417; Phage binding ELISA CD28 scFv signal [2]: 2.66

Question: MDWCPRDSWHLCFA [Phage-59] was tested. Which “Phage binding ELISA CD28 scFv signal in presence of CD28” value [8] did it give?
Answer: The value was 0.147.

Question: What about the “Phage binding ELISA CD28 scFv signal” value [9] of the same binder?
Answer: Its value is 2.45.

Question: Which results are given for MDWCPPYLWNVCFS [Phage-50]?
Answer: Phage binding ELISA CD28 scFv signal [10]: 1.64; Phage binding ELISA CD28 scFv signal in presence of CD28 [11]: 0.1

Question: With MDWCPRDLWYACFA [Phage-116] as the binder, how does the “Phage binding ELISA CD28 scFv signal in presence of CD28” value [5] read?
Answer: The value was 0.242.

Question: What about the “Phage binding ELISA CD28 scFv signal” value [6] of the same binder?
Answer: The value was 2.47.

Question: What does the source list for MDWCPIDLWNECFF [Phage-19]?
Answer: Phage binding ELISA CD28 scFv signal in presence of CD28 [14]: 0.187; Phage binding ELISA CD28 scFv signal [15]: 2.52

Question: How did the “Phage binding ELISA CD28 scFv signal in presence of CD28” value [17] turn out when MDWCPIHLWHYCFN [Phage-88] was run?
Answer: Its value is 0.453.

Question: What about the “Phage binding ELISA CD28 scFv signal” value [18] of the same binder?
Answer: Its value is 2.6.

Question: How did the “Phage binding ELISA CD28 scFv signal in presence of CD28” value [17] turn out when MDWCPKDLWDYCFA [Phage-97] was run?
Answer: Its value is 0.165.

Question: And the “Phage binding ELISA CD28 scFv signal” value [18]?
Answer: Its value is 2.57.

Question: With MDWCPVHLWSVCFA [Phage-38] as the binder, how does the “Phage binding ELISA CD28 scFv signal in presence of CD28” value [5] read?
Answer: The value was 0.302.

Question: And the “Phage binding ELISA CD28 scFv signal” value [6]?
Answer: Its value is 2.65.

Question: For MNWCPKDIWYLCFN [Phage-22], which “Phage binding ELISA CD28 scFv signal in presence of CD28” value [8] is on record?
Answer: The value was 0.168.

Question: And the “Phage binding ELISA CD28 scFv signal” value [9]?
Answer: Its value is 2.62.

Question: With MDWCPMHLWHQCFN [Phage-39] as the binder, how does the “Phage binding ELISA CD28 scFv signal in presence of CD28” value [8] read?
Answer: Its value is 0.299.

Question: And the “Phage binding ELISA CD28 scFv signal” value [9]?
Answer: Its value is 2.56.

Question: How did the “Phage binding ELISA CD28 scFv signal” value [3] turn out when MDWCPMHLWNKCFN [Phage-53] was run?
Answer: Its value is 1.04.

Question: And the “Phage binding ELISA CD28 scFv signal in presence of CD28” value [4]?
Answer: The value was 0.122.
